T1: drRecJ WT (Deinococcus radiodurans, UniProt D0EM60 1-705)
T1 sequence: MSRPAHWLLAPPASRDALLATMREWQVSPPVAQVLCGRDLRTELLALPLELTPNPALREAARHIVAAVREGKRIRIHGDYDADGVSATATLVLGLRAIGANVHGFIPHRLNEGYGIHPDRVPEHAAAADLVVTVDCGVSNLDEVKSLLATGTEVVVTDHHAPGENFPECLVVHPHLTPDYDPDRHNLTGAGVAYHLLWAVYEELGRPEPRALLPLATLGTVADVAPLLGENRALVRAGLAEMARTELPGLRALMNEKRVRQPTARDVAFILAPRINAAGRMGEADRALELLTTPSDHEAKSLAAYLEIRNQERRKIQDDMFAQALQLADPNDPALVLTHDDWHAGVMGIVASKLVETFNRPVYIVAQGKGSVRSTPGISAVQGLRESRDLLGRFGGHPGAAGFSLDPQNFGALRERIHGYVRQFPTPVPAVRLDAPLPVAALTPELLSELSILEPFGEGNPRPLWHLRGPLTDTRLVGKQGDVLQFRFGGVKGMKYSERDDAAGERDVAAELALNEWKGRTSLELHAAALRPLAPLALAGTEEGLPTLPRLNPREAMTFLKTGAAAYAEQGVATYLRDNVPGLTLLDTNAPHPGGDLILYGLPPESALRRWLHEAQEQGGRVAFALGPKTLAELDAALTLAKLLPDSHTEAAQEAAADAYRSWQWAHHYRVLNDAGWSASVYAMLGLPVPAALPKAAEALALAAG


Target: T1, drRecJ WT
Assay: EMSA; no Mn2+ added; EMSA: 10 nM 3'-6-FAM ssDNA, 50 mM Tris-HCl pH 7.5, 150 mM KCl, 0.1 mg/ml BSA, 1 mM DTT, 5% glycerol, 20 min at 30 C; 8% native PAGE in TBE; Hill fit
Conditions: protein: recombinant; label: 3'-6-FAM

Binder	Kd [nM]
AAAAAAAAAAAAAAAAAAAA (ssDNA) [KY08, (dA)20]	54.9 ± 5.18
AAAAAAAAAAAAAAAAAAAA (ssDNA, 5'-monophosphate) [KY10, 5'-P-(dA)20]	33.9 ± 2.83
AAAAAAAAAAAAAAAAAAAA (ssDNA, 5'-P-dSpacer (tetrahydrofuran abasic, 5'-dRP mimic) added before A1) [KY11, 5'-P-dSpacer-(dA)20]	28.4 ± 3.1

Reference: PMC7515722, “Participation of RecJ in the base excision repair pathway of Deinococcus radiodurans”
